Data set [1] concerns MS2 coat protein. Put plainly: apparent KD of MS2 coat protein, switch OFF state (with FMN for OFF switches, without FMN for ON switches); designed switch direction (-1 OFF switch, 1 ON switch): 1; higher = weaker reporter binding. The following applies: FMN input: 0 or 200 uM; Eterna round: R93 (includes R88 designs). Put shortly: (§1)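 Designed RNA switches, transcribed on-chip from Illumina sequencing clusters, were titrated with SNAP-549-labelled MS2 coat protein from 0.7 or 1.5 nM to 3 µM in twofold steps. The solution was 100 mM Tris-HCl pH 7.5, 80 mM KCl, 4 mM MgCl2, with constant ligand or without it. Apparent KD is the median over each design's normalised cluster binding-curve fits.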

The test system of data set [2] is MS2 coat protein. Put plainly: apparent KD of MS2 coat protein, switch ON state; designed switch direction (-1 OFF switch, 1 ON switch): 1; higher = weaker reporter binding. To be noted: FMN input: 0 or 200 uM; Eterna round: R93 (includes R88 designs). Put shortly:
as §1

As to “AACAGACAUGAGGAUCACCCAUGUAGAAUUAUGGGAGGAUAUACAAAGACGAGAGUCAGAGUAGAAGGCCUAGGAG [salish99-ss1-162]”, the “apparent KD of MS2 coat protein” value in the data set with MS2 coat protein [1] is 44.3 nM; in the data set on MS2 coat protein [2] it was 22.1 nM.
On the same counts, the results for “AACUACAUUAUGAAGGAUAUCCGCGUCUAGACAUGAGGAUCACCCAUGUAUACUUGGAUCAUGCAGGAGAAGGUCAAGGGUGAUU [JR_SS002_Sub1209]” are 122 nM and 178 nM.
On the same counts, the results for “AAGAAACAUGAGGAUCACCCAUGUAAACUCGAGAGAGGAUAUCGUACAUGGAAGAUUCAACGAGAAGGCUCUAGAG [Same State 1.1a (Pariah 3, G boost at 31, GC 76/28)]” are 41.5 nM and 23.8 nM.
In the same order, the values of “AAGAAACAUGAGGAUCACCCAUGUAAGAAUAUGGGAGGAUAUACAAGGACAAGAGUCAAGGUAGAAGGCCUAAGAA [Mat - Same State 1 - Meechl mod - D143]” are 118 nM and 33 nM.
As to “AAGAAACAUGAGGAUCACCCAUGUACCCAAAAGCGAGGAUAUGGGAAAGAAAGAAAGAAACCAGAAGGCGCAUGAA [Darius II]”, the figures for the “apparent KD of MS2 coat protein” value with MS2 coat protein [1] and in the data set on MS2 coat protein [2] were 35.5 nM and 20 nM, respectively.
In the same order, the values of “AAGAAACAUGAGGAUCACCCAUGUGAGAUAAACACAGGAUAUGCGAAAAGAAACAAAGAAGCAGAAGGGUGAAGAA [Mat - Same State 1 - Tesla mod - 55]” are 126 nM and 34.9 nM.
In the same order, the values of “AAGACACAUGAGGAUCACCCAUGUCAAGAGAGAUGAGGAUAUCUGAGUUAGUUAAGUUAAGGAGAAGGCAUGAAAA [LROPPY Same State 1 - v01_deltaG=3.81]” are 59.4 nM and 31 nM.
Take “AAUAAACAUGAGGAUCACCCAUGUACCGACCACUAAGGAUAUGGGCGAAUAACAGCUCGGCCAGAAGGUAGAGGUG [Gebimarabi]”: the figures for the “apparent KD of MS2 coat protein” value with MS2 coat protein [1] and in the data set on MS2 coat protein [2] were 62.5 nM and 46.7 nM, respectively.
In the same order, the values of “AAUAAACAUGAGGAUCACCCAUGUCUUUUACAUCAAGGAUAUGGGAUCGGAAAUCCGACACCAGAAGGUGAGUAGA [Userra]” are 300 nM and 157 nM.
On the same counts, the results for “AAUAAUUAUAUGGAGGAUAUCCGUAAUAAGACAUGAGGAUCACCCAUGUAAUAAGGGUAAAUAAAGGAGAAGGCCAAGGGUGAAA [JR_SS002_Sub003]” are 184 nM and 98.4 nM.
Turning to “AAUACACAUAGUCAGGAUAUCAAAACUAAGACAUGAGGAUCACCCAUGUAAUAAGUAAAAGUAAAUGAGAAGGGACAGGGUGACC [JR_SS002_Sub404]”, the “apparent KD of MS2 coat protein” value stood at 63.9 nM in the data set with MS2 coat protein [1] and 130 nM in the data set on MS2 coat protein [2].
Take “AAUAUACAUGAGGAUCACCCAUGUUUUAAUAACUGAGGAUAUACGGGUGAAAACAGCAUAGUAGAAGGCAGAAAAA [SameState1 Malc#5]”: the “apparent KD of MS2 coat protein” value in the data set with MS2 coat protein [1] was 89.1 nM; in the data set on MS2 coat protein [2], 42.2 nM.
On the same counts, the results for “AAUAUACAUGAGGAUCACCCAUGUUUUAAUAGUUGAGGAUAUACGGGUGAAAAUAGCAUAGUAGAAGGCGAGUGUA [SameState1 Malc#12]” are 106 nM and 146 nM.
As for “AAUAUAUUAAGUGAGGAUAUCGAAGAAAAAACAUGAGGAUCACCCAUGUGGGAAACCUGGUCGGGUGAGAAGGCACUUAAUAUAU [Samwise Clockwise 27 - Jieux - Same State 2]”, the “apparent KD of MS2 coat protein” value was 85.4 nM in the data set with MS2 coat protein [1] and 45.5 nM with MS2 coat protein [2].
On the same counts, the results for “AAUCCAAAUAGUCAGGAUAUCAAAAAUAAGACAUGAGGAUCACCCAUGUACUUAGUAAAAGUAAAUGAGAAGGGACAGGGUGAAA [JR_SS002_Sub403]” are 29.4 nM and 21.4 nM.
On the same counts, the results for “AAUCCAACUAGUCAGGAUAUCAGGCGUAAGACAUGAGGAUCACCCAUGUCCUAAGAACAAGUAACUGAGAAGGGACAGGGCGACC [JR_SS002_Sub411]” are 62 nM and 57.6 nM.
On the same counts, the results for “ACAAACAAAAAAGAGGAUAUCCUAAAUAAAACAUGAGGAUCACCCAUGUAAAAAAUAAUAAAAUGGGAGAAGGCUUACAACAAAC [SS2 M 24]” are 21 nM and 15.6 nM.
As for “ACAAACAAAAGAGAGGAUAUCCAAAAGAAAACAUGAGGAUCACCCAUGUGAAAGAAAAUAAAAUGGGAGAAGGCUCAGAACAACA [Topaz 28]”, the “apparent KD of MS2 coat protein” value with MS2 coat protein [1] turned out to be 46.2 nM; in the data set on MS2 coat protein [2], 29.2 nM.
“ACAAAGCUACACUAGGAUAUGGGUGUCUAAACAUGAGGAUCACCCAUGUGAUGGCAAAACAAAGCUCAGAAGGAGUCGUAGCCCA [Bientevece]”: the “apparent KD of MS2 coat protein” value with MS2 coat protein [1] turned out to be 34.9 nM; in the data set with MS2 coat protein [2] it was 15 nM.

The record behind these values is the supplement of paper PMC9170038.
